# Source: the RNAGym collection of RNA variant scans (doi:10.7554/elife.80360)
# B1: HDV Ribozyme (parent)
# chain: GGCCGGCAUGGUCCCAGCCUCCUCGCUGGCGCCGGCUGGGCAACAUUCCGAGGGGACCGUCCCCUCGGUAAUGGCGAAUGGGACCCA
# Variants of: B1
# Assay: self-cleavage, relative activity (ratio to wild type); higher = more cleavage; co-transcriptional
row,Variant,self-cleavage
1,G2U C26A,0.0357
2,G2A U65A,0.173
3,G2C A78G,0.0875
4,G2C A78U,0.132
5,G2C G31C,0.0237
6,G2C G31U,0.109
7,C3A G25C,0.0198
8,C3A C49G,0.51
9,C3A C49A,0.554
10,C3A C49U,0.777
11,G2U A8U,0.134
12,G2U A8G,0.0272
13,G2C U12G,0.0426
14,G2C U12A,0.17
15,G2C G74U,0.1
16,G2C G74C,0.0308
17,G2C G74A,0.113
18,G2U C15U,0
19,G2U C15G,0.0282
20,G2U U60G,0.0831
21,G2U U60A,0.0396
22,G2C G76A,0.13
23,G2C G76C,0.0747
24,G2U C7U,0.0264

row,Variant,self-cleavage
1,G2U C7A,0.013
2,G2U C48U,0.0563
3,G2U C48G,0.0615
4,G2U C85U,0
5,G2C G17C,0.0536
6,G2C G17A,0
7,G2U C66U,0.0895
8,G2U C66G,0.0198
9,C3A A83U,0.0821
10,G2C U69C,0.175
11,G2C A8C,0.0639
12,G2C A8U,0
13,C3A C44U,0.145
14,C3A C86G,0.745
15,C3A C86U,0.745
16,C3A C86A,0.535
17,G2C A77G,0.0346
18,G2A U79G,0.089
19,G2A U79C,0.0804
20,G2A U79A,0.0225
21,G2C C30G,0.0594
22,G2C C30A,0.0875
23,G2C C14G,0.0773
24,G2C U20A,0.0361

row,Variant,self-cleavage
1,G2C C66G,0.0978
2,G2C C19G,0.102
3,G2C C19A,0.106
4,G2U A78U,0
5,G2U A78C,0.0198
6,G2C G35C,0.124
7,G2C G35U,0.0747
8,G2C G35A,0.0623
9,G2C A56C,0.0678
10,G2C A56U,0.0482
11,G2C A56G,0.0332
12,C3A G6U,0.0492
13,C3A C48U,0.635
14,C3A C48A,0.839
15,C3A C84G,0.158
16,C3A C84A,0.391
17,G2C G59C,0.0923
18,G2U G17A,0
19,G2U G17U,0.0366
20,G2C G53A,0.108
21,G2A U47A,0.0314
22,G2C C44U,0.0453
23,G2C C44G,0.0656
24,G2C C44A,0.0449

row,Variant,self-cleavage
1,G2C G10A,0.145
2,G2C G10C,0
3,G2C G10U,0.056
4,C3A C21U,0.0314
5,C3A C21A,0.0339
6,C3A C61U,0.554
7,G2U C18G,0.0692
8,G2C C85G,0.0563
9,G2C C85A,0.0287
10,G2C C85U,0.0287
11,G2C C75A,0
12,G2C C75G,0.0314
13,G2U C32A,0.0302
14,G2U C32U,0.0437
15,C3A C14A,0.313
16,C3A C14U,0.697
17,G2U G76C,0.0279
18,G2U G76U,0.0762
19,G2U G55C,0.116
20,G2U G55A,0.0732
21,G2C U72A,0.106
22,C3A A16C,0.0875
23,C3A A16G,0.401
24,G2U G52A,0.0704

row,Variant,self-cleavage
1,G2U G52C,0.0339
2,C3A G11A,0.236
3,C3A G11C,0.0963
4,G2C U65C,0.14
5,G2C U65A,0
6,G2U G6A,0.0355
7,G2U G6C,0.106
8,G2U U37C,0.0801
9,G2U U37G,0.0422
10,G2U U37A,0.0378
11,G2C A71G,0.021
12,G2C G68C,0.0244
13,G2C G68U,0.0449
14,G2C G68A,0.0504
15,G2U C22U,0.032
16,G2U C22A,0.035
17,G2U C22G,0.0193
18,G2C A16G,0.131
19,G2C A16U,0.0282
20,G2U G29A,0.0178
21,G2C C26A,0.314
22,C3A A70U,0.437
23,G2U G73C,0
24,G2C C62U,0.0841

row,Variant,self-cleavage
1,G2C U47C,0.102
2,G2U C21G,0.0594
3,G2C G39U,0.0246
4,C3A A8U,0.269
5,C3A A8G,0.578
6,G2U C61G,0.0386
7,G2U C61A,0.0913
8,C3A C58G,0.606
9,G2C C13A,0.0707
10,G2C C18G,0
11,C3A C33U,0.166
12,G2C C63A,0.0213
13,G2U A42U,0.0647
14,G2C C61A,0.0391
15,G2U G53C,0.0647
16,G2U G53A,0.0412
17,G2C G81A,0.0511
18,G2U C4G,0.0228
19,C3A A42G,0.0615
20,G2U C63U,0.0545
21,G2U C63A,0.101
22,G2U C63G,0.0528
23,G2U A45C,0
24,G2U A45G,0

row,Variant,self-cleavage
1,C3A A77G,0.313
2,C3A A77C,0.171
3,C3A A77U,0.224
4,G2U U23C,0.112
5,G2U U12A,0.17
6,G2C U27C,0.0496
7,G2C U27G,0.0437
8,C3A,0.641
9,G2C G38C,0.0475
10,G2C G38A,0.0747
11,G2C G80U,0.0392
12,G2C G80C,0.154
13,C3A A51G,0.444
14,G2C U23A,0
15,G2C U23G,0.0268
16,C3A C64U,0.65
17,G2U G68A,0.0264
18,C3A C15A,0.306
19,C3A C15G,0.237
20,C3A C7U,0.188
21,G2U A16C,0
22,G2U,0.0584
23,G2C,0.0584
24,G2C C33G,0.0514

row,Variant,self-cleavage
1,G2C C33U,0.0608
2,G2U A77G,0
3,G2U A77U,0.0244
4,G2C U9C,0.128
5,G2U C49U,0.0821
6,G2U C49G,0.0329
7,G2C C15U,0.0563
8,G2C G82U,0
9,C3A A45G,0.469
10,C3A A45C,0.0482
11,G2U C24G,0.0225
12,G2U C24U,0.0784
13,G2U A87C,0.0661
14,G2C C4U,0.475
15,G2C U79C,0.101
16,G2C U79G,0
17,G2C C41G,0.103
18,G2C C41A,0
19,G2C A87C,0.0523
20,G2C A87G,0.0671
21,G2C A87U,0.0825
22,G2U G38A,0.032
23,G2U G38U,0.0126
24,G2A U69G,0.219

row,Variant,self-cleavage
1,G2A U69C,0.332
2,C3A C75U,0.128
3,G2U A51U,0.0799
4,G2U G25C,0.0244
5,G2U G25A,0.0391
6,G2U A70U,0.0548
7,G2U A70G,0.0715
8,G2U A70C,0.0373
9,C3A C32U,0.119
10,G2C G50C,0.0277
11,G2C G50A,0.138
12,C3A C24U,0.0755
13,C3A C24A,0.0268
14,C3A G5U,0.00831
15,G2U C64G,0.0791
16,G2U C13A,0
17,G2U C13G,0
18,G2U C62G,0.136
19,G2U C62A,0.0166
20,G2C G29A,0.155
21,G2C G29U,0.0494
22,C3A A43U,0.191
23,C3A A43G,0.0821
24,C3A A43C,0.0504

row,Variant,self-cleavage
1,G2C A70G,0
2,G2C A70U,0.0601
3,G2U G67A,0.0602
4,G2U G67U,0.0563
5,G2U G67C,0.0678
6,G2U G59A,0.128
7,G2U G59U,0.128
8,G2U G28U,0.0246
9,G2U G31A,0.0578
10,G2U G31U,0.0268
11,G2U C41U,0.0419
12,G2U C41G,0.0119
13,G2U U9G,0.101
14,G2U U9C,0.104
15,G2C G5U,0.145
16,G2C G5C,0.237
17,G2C G67A,0.0449
18,G2C U60C,0.0545
19,G2U C33U,0.0422
20,G2C C86A,0.128
21,G2C C86U,0.0779
22,G2U G5C,0
23,C3A C63G,0.285
24,C3A C63U,0.559

row,Variant,self-cleavage
1,G2U A56U,0.016
2,G2U A56C,0.0405
3,G2C A51G,0.0831
4,G2U A71U,0.0287
5,C3A C26G,0.415
6,G2U G82A,0.0189
7,G2U C86U,0.095
8,G2U C86A,0.152
9,G2U A43U,0.0866
10,G2U A43C,0.0292
11,G2U G80C,0.0455
12,G2U G80U,0.0208
13,G2U G80A,0.0496
14,C3A C19U,0.0134
15,C3A C19A,0.0199
16,G2U G40C,0.0455
17,G2U G40A,0.0369
18,C3A C30A,0.0393
19,C3A C30U,0.143
20,G2C U37C,0.17
21,G2U C36G,0.185
22,G2C G54A,0.0777
23,G2C G54U,0.0723
24,G2C G6U,0.0601

row,Variant,self-cleavage
1,G2C C36A,0.138
2,G2C C36U,0.0799
3,G2U U65A,0.02
4,G2C G11A,0.0455
5,G2U C44G,0
6,G2C G25A,0.0528
7,C3A A56G,0.632
8,G2U C84U,0.0604
9,C3A C57G,0.587
10,C3A C57A,0.659
11,G2U U27A,0.0767
12,G2U U27C,0.0198
13,G2U A83U,0.0536
14,G2U A83C,0.0594
15,G2U A83G,0.0815
16,G2C C32U,0.101
17,G2C C32G,0.0554
18,G2C C32A,0.0712
19,G2U U47G,0.119
20,G2U U47C,0
21,G2U U47A,0
22,G2C G52A,0.113
23,G2C C58A,0
24,G2C C58G,0.13

row,Variant,self-cleavage
1,C3A A78U,0.0627
2,G2U G54C,0.0157
3,G2U G54A,0.0279
4,G2U C30U,0.025
5,G2U C30G,0.0601
6,G2U U69C,0
7,C3A G17A,0.104
8,C3A G17U,0.0665
9,C3A C4G,0.0225
10,G2C A42U,0.0475
11,G2C C48A,0
12,G2C C48G,0.0545
13,G2U U20G,0.0256
14,G2U G74C,0
15,G2U C75G,0.0256
16,G2C C64U,0.0219
17,G2C C64A,0.0652
18,G2C C64G,0.0804
19,G2C G55A,0.0941
20,G2C C57A,0.086
21,G2C G73C,0.106
22,G2C G73A,0.0252
23,C3A C85G,0.623
24,G2C G34A,0.0504

row,Variant,self-cleavage
1,G2C G34U,0.0966
2,G2C G28U,0.014
3,G2C C84A,0.0462
4,G2C C84G,0.0639
5,G2U G34U,0.0369
6,G2U G81A,0
7,G2U C19A,0.0165
8,G2U C19U,0.0155
9,G2U C19G,0
10,C3A C62G,0.0773
11,C3A C62U,0.57
12,G2U U72A,0.0287
13,G2A U46G,0.0817
14,G2A U46A,0.0601
15,G2U U46C,0.0213
16,G2U C57A,0.156
17,C3A C36U,0.0915
18,G2U G50U,0
19,C3A G10C,0.504
20,C3A G10A,0.335
21,C3A G10U,0.23
22,C3A C41G,0.0761
